{"source": "patent US20260027220A1", "about": "“EPHA2 BCL-XL INHIBITOR ANTIBODY-DRUG CONJUGATES AND METHODS OF USE THEREOF” (Novartis AG, priority 2022, published 2026)", "key": {"human EphA2 ectodomain": {"molecular_target": "T1, human EphA2 ectodomain (human, UniProt P29317 24-537)", "T1 construct": "Soluble ectodomain used as the SPR analyte", "T1 sequence (P29317 24-537 limits assumed)": "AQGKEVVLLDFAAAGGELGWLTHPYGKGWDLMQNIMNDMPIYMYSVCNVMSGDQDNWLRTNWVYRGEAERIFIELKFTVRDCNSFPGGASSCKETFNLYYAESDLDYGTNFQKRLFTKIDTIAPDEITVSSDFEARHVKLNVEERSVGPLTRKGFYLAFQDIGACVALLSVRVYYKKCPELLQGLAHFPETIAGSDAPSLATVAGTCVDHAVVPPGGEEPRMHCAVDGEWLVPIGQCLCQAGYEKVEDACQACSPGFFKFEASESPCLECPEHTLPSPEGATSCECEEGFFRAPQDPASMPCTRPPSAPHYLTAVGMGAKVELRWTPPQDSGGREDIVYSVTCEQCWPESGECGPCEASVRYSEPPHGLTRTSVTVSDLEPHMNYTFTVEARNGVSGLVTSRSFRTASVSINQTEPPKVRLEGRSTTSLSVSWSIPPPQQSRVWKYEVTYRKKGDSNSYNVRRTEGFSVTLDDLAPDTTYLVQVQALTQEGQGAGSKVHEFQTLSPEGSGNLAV", "experiment": "SPR (Biacore 8k), Fab-capture, 37C, 1:1 model;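 note: Anti-EphA2 IgG captured via immobilized anti-Fab, soluble EphA2 ectodomain as analyte at six twofold dilutions from 50 nM, HBS-EP+ pH 7.6 running buffer, double reference subtraction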", "experimental": "(§1) A human Fab capture method was utilized in order to determine kinetics for the antibodies. […] Each channel has two flow cells. The reference flow cell contained only immobilized anti-Fab, whereas the reaction flow cell captured anti-EphA2 IgG through anti-Fab. HBS-EP+ Buffer, pH 7.6 was used as the running buffer. The soluble human, mouse and cyno EphA2 ectodomain flowed over both flow cells on 8 channels. The EphA2 ectodomain concentration started at 50 nM and was serially diluted at one part to one part (1:1) in the running buffer for six concentrations. The analysis chamber was kept at 37° C. Regeneration was performed at the end of each sample washing with the solution of 10 mM Glycine-HCl, pH 2.1 provided in the kit.\n(§2) The data were analysed using the Biacore Insight Evaluation Software. Double reference subtraction was completed to generate the final data. The raw data was fitted to a 1:1 binding model, with parameter(s) Rₘₐₓ set to local."}, "mouse EphA2 ectodomain [1]": {"molecular_target": "T2, mouse EphA2 ectodomain (mouse, UniProt Q03145 26-538)", "T2 construct": "extracellular domain", "T2 sequence (Q03145 26-538)": "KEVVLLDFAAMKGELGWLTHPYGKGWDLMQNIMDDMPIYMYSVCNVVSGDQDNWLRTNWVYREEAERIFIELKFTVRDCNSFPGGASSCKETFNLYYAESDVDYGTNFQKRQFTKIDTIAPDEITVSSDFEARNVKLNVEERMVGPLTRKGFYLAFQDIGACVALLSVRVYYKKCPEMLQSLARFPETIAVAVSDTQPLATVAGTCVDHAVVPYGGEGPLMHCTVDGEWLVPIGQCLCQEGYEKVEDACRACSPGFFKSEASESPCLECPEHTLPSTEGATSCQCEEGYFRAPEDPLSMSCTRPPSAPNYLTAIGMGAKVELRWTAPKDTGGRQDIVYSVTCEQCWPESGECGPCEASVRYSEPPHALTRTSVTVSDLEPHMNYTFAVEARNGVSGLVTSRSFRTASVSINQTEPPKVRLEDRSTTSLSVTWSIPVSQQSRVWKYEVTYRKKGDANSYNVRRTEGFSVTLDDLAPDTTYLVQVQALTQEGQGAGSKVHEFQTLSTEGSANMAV", "experiment": "SPR (Biacore 8k), Fab-capture, 37C, 1:1 model", "experimental": "as §1, §2"}, "cyno EphA2 ectodomain [2]": {"molecular_target": "T3, cyno EphA2 ectodomain (cyno, UniProt Q1KL86 25-537)", "T3 construct": "extracellular domain", "T3 sequence (Q1KL86 25-537)": "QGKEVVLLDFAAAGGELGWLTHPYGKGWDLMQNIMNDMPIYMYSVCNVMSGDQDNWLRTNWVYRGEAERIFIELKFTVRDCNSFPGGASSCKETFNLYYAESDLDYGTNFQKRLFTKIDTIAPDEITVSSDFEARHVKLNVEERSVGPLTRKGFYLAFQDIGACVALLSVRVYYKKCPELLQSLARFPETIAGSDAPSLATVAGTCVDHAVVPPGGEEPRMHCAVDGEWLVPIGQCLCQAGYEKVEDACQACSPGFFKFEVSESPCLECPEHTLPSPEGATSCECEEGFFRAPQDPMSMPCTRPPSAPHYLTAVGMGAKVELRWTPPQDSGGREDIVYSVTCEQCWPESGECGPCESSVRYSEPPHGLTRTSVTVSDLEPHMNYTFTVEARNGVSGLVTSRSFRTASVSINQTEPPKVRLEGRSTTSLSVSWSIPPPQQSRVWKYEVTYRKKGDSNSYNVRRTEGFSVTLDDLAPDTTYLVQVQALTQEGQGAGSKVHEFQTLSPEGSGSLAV", "experiment": "SPR (Biacore 8k), Fab-capture, 37C, 1:1 model", "experimental": "as §1, §2"}, "[3]": {"molecular_target": "T4, human EphA2 expressed on HKB-11 cells (human, UniProt P29317 24-976)", "T4 construct": "The HKB-11 cells were transduced to overexpress EphA2; also called HKB-11 EphA2+ cell line", "T4 sequence (P29317 24-976 limits assumed)": "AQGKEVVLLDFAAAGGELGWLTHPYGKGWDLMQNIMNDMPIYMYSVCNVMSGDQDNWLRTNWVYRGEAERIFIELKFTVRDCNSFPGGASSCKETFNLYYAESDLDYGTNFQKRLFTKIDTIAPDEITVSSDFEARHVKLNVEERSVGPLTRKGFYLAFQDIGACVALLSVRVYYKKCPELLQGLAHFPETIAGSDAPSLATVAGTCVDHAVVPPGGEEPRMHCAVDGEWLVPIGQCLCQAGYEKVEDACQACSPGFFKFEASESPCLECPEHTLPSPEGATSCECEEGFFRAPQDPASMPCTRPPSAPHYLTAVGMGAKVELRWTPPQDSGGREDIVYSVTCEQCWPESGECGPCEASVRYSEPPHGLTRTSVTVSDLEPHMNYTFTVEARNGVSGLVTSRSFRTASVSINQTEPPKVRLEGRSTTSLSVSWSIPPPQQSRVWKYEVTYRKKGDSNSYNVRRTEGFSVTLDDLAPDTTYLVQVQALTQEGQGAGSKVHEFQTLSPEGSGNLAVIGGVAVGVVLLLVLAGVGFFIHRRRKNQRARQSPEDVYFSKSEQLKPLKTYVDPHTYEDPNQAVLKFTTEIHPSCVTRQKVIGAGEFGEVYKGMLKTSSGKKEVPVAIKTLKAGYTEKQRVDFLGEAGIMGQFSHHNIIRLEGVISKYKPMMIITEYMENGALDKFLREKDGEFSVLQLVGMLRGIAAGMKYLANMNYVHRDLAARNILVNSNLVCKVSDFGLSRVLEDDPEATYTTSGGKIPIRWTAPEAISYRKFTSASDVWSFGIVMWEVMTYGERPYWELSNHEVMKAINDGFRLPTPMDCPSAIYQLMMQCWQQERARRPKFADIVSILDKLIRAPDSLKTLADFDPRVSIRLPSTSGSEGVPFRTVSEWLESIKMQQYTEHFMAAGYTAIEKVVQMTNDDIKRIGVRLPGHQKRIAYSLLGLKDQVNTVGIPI", "experiment": "KinExA apparent (avid) equilibrium KD on human EphA2 HKB-11 cells", "experimental": "(§3) Free antibody in equilibrium titration reactions were measured by KinExA using a KinExA 3200, Autosampler (Sapidyne). Data were analyzed using KinExA Pro 4-5-X (Sapidyne).\n(§4) Anti-EphA2 antibody was diluted in PBS with 10% HI-FBS and 0.04% sodium azide to 2× the final concentration of binding sites needed for equilibrium titration. […] Cells and antibody were combined 1:1 in an eppendorf tube and incubated overnight, 4° C., rotating. Buffer and antibody alone samples were included. Cells were pelleted and supernatants were transferred to a 2 ml 96-well deep well plate covered with pierceable film.\nData were analyzed by n-Curve Analysis."}, "[4]": {"molecular_target": "T4, human EphA2 expressed on HKB-11 cells", "experiment": "flow cytometry on HKB-11 cells overexpressing EphA2; lot ZE-39-AG34", "experimental": "(§5) The binding affinity of EphA2 antibodies on cells was evaluated using flow cytometry (FACS). […] Cell lines were cultured in media that is optimal for their growth at 5% CO₂, 37° C. in a tissue culture incubator. Cell viability and cell density were determined using a cell counter (Vi-Cell XR Cell Viability Analyzer, Beckman Coulter). […] All subsequent steps were performed on ice and in ice cold FACS buffer to prevent internalization of the receptor. Cells were resuspended in 100 μL of FACS buffer containing an 11-point serial dilution of test antibodies at final concentrations of 200 nM-0.003 nM. Cells were incubated at 4° C. for 45 minutes. Following incubation, cells were washed three times in ice cold PBS at 1000 rpm for 5 minutes with 200 μL FACS buffer. […] Cells were incubated in the dark at 4° C. for 45 minutes. Following incubation, cells were washed three times in ice cold PBS at 1000 rpm for 5 minutes with 200 μL FACS buffer. Cells were then resuspended in 100 μL FACS buffer containing DAPI (ThermoFisher, #D1306) staining followed by readout via flow cytometry (MACSQuant® Analyzer 10). Data was analyzed using FlowJo v10.8.1 to obtain MFI (Mean Fluorescence Intensity) on live cells. EC₅₀ values were calculated using the GraphPad Prism 9 software. There were three rounds of experiments performed to evaluate three groupings of EphA2 antibodies. […]"}, "[5]": {"molecular_target": "T4, human EphA2 expressed on HKB-11 cells", "experiment": "flow cytometry on HKB-11 cells overexpressing EphA2; lot ZF-74-CQ11", "experimental": "as §5"}, "mouse EphA2 ectodomain [6]": {"molecular_target": "T2, mouse EphA2 ectodomain", "experiment": "SPR (Biacore 8k), Fab-capture, 37C", "experimental": "as §1, §2"}, "cyno EphA2 ectodomain [7]": {"molecular_target": "T3, cyno EphA2 ectodomain", "experiment": "SPR (Biacore 8k), Fab-capture, 37C", "experimental": "as §1, §2"}, "[8]": {"molecular_target": "T4, human EphA2 expressed on HKB-11 cells", "experiment": "KinExA avid equilibrium KD on cells, average of replicates", "experimental": "as §3, §4\nData were analyzed by n-Curve Analysis."}, "[9]": {"molecular_target": "T4, human EphA2 expressed on HKB-11 cells", "experiment": "flow cytometry on HKB-11 cells overexpressing EphA2; lot DE-39-AD34", "experimental": "as §5"}, "[10]": {"molecular_target": "T4, human EphA2 expressed on HKB-11 cells", "experiment": "flow cytometry on HKB-11 cells overexpressing EphA2; lot FE-76-NO13", "experimental": "as §5"}}, "note": "“And” between values parts separate entries of the source, which are not always exact repeats. Equal values may be shown once.", "data": [{"binder": "anti-EphA2 E152C S375C 1C1 (LC G77S) hIgG1 (WT Heavy Chain) (antibody, V domains shown, also called 1C1 G77S IgG; ZF-74-CQ11) VH: EVQLLESGGGLVQPGGSLRLSCAASGFTFSHYMMAWVRQAPGKGLEWVSRIGPSGGPTHYADSVKGRFTISRDNSKNTLYLQMNSLRAEDTAVYYCAGYDSGYDYVAVAGPAEYFQHWGQGTLVTVSS VL: DIQMTQSPSSLSASVGDRVTITCRASQSISTWLAWYQQKPGKAPKLLIYKASNLHTGVPSRFSGSGSGTEFSLTISSLQPDDFATYYCQQYNSYSRTFGQGTKVEIKR", "values": [{"measurement": "Kd", "setting": "human EphA2 ectodomain", "value": 186, "unit": "nM"}, {"measurement": "Kd", "setting": "mouse EphA2 ectodomain [1]", "value": 369, "unit": "nM"}, {"measurement": "Kd", "setting": "cyno EphA2 ectodomain [2]", "value": 222, "unit": "nM"}, {"measurement": "Kd", "setting": "[3]", "value": 0.171, "unit": "nM"}, {"measurement": "EC50", "setting": "[4]", "value": 2.21, "unit": "nM"}, {"measurement": "EC50", "setting": "[5]", "value": 3.73, "unit": "nM"}]}, {"binder": "anti-EphA2 E152C S375C 1C1 (LC N92A) hIgG1 (WT Heavy Chain) (antibody, V domains shown, also called BC-56-WI24) VH: EVQLLESGGGLVQPGGSLRLSCAASGFTFSHYMMAWVRQAPGKGLEWVSRIGPSGGPTHYADSVKGRFTISRDNSKNTLYLQMNSLRAEDTAVYYCAGYDSGYDYVAVAGPAEYFQHWGQGTLVTVSS VL: DIQMTQSPSSLSASVGDRVTITCRASQSISTWLAWYQQKPGKAPKLLIYKASNLHTGVPSRFSGSGSGTEFSLTISGLQPDDFATYYCQQYASYSRTFGQGTKVEIKR", "values": [{"measurement": "binding result", "setting": "mouse EphA2 ectodomain [6]", "value": "no binding (tested: EphA2 ectodomain titrated from 50 nM)"}, {"measurement": "binding result", "setting": "cyno EphA2 ectodomain [7]", "value": "no binding (tested: EphA2 ectodomain titrated from 50 nM)"}]}, {"binder": "anti-EphA2 E152C S375C 1C1 (LC S72T) hIgG1 (WT Heavy Chain) (antibody, V domains shown, also called 1C1 S72T IgG; FE-76-NO13) VH: EVQLLESGGGLVQPGGSLRLSCAASGFTFSHYMMAWVRQAPGKGLEWVSRIGPSGGPTHYADSVKGRFTISRDNSKNTLYLQMNSLRAEDTAVYYCAGYDSGYDYVAVAGPAEYFQHWGQGTLVTVSS VL: DIQMTQSPSSLSASVGDRVTITCRASQSISTWLAWYQQKPGKAPKLLIYKASNLHTGVPSRFSGSGSGTEFTLTISGLQPDDFATYYCQQYNSYSRTFGQGTKVEIKR", "values": [{"measurement": "Kd", "setting": "human EphA2 ectodomain", "value": 216, "unit": "nM"}, {"measurement": "koff", "setting": "human EphA2 ectodomain", "value": 0.0518, "unit": "s⁻¹"}, {"measurement": "kon", "setting": "human EphA2 ectodomain", "value": 240000, "unit": "M⁻¹ s⁻¹"}, {"measurement": "Kd", "setting": "mouse EphA2 ectodomain [1]", "value": 377, "unit": "nM"}, {"measurement": "koff", "setting": "mouse EphA2 ectodomain [1]", "value": 0.0512, "unit": "s⁻¹"}, {"measurement": "kon", "setting": "mouse EphA2 ectodomain [1]", "value": 136000, "unit": "M⁻¹ s⁻¹"}, {"measurement": "Kd", "setting": "cyno EphA2 ectodomain [2]", "value": 230, "unit": "nM"}, {"measurement": "koff", "setting": "cyno EphA2 ectodomain [2]", "value": 0.17, "unit": "s⁻¹"}, {"measurement": "kon", "setting": "cyno EphA2 ectodomain [2]", "value": 737000, "unit": "M⁻¹ s⁻¹"}, {"measurement": "Kd", "setting": "[8]", "value": 0.137, "unit": "nM"}, {"measurement": "Kd", "setting": "[3]", "value": "0.132 nM and 0.143 nM"}, {"measurement": "EC50", "setting": "[9]", "value": 2.12, "unit": "nM"}, {"measurement": "EC50", "setting": "[10]", "value": 3.19, "unit": "nM"}]}]}
